Consider two substances from patent US20230036060A1, “DUAL-CONTROLLED DRUG AND PHOTOACTIVATABLE SYSTEM FOR SPATIOTEMPORAL CONTROL OF CELL THERAPY” (THE REGENTS OF THE UNIVERSITY OF CALIFORNIA, priority 2019, published 2023).

For test [1], the target named is CIB1-CreC(106-343) (Arabidopsis thaliana) (UniProt Q8GY61). As to the kind of experiment: cell-based or functional assay.
The target of another test is NLS-pMag-CreC. As to the kind of experiment: cell-based or functional assay.
NLS-pMag-CreC, sequence (chain, as listed by the source): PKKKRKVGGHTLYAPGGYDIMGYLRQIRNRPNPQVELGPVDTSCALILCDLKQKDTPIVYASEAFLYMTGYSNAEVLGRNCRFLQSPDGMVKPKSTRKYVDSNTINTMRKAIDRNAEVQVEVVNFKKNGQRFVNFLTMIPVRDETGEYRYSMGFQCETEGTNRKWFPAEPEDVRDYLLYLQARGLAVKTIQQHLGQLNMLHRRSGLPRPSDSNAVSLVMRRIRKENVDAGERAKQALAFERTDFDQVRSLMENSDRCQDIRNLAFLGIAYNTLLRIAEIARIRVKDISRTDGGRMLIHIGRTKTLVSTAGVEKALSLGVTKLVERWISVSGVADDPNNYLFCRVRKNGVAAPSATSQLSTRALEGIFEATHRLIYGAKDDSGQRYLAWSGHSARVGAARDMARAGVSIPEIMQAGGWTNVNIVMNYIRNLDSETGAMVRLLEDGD

CreN(19-59)-nMag-NLS, sequence (P06956 19-59): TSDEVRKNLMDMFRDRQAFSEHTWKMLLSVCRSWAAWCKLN

On to “CRY2(L348F)-CreN(19-104) (from UniProt Q96524 1-612; P06956 19-104)”, for which, in test [1], the fold increase in Cre-loxP recombination, PA-Cre-C, Light against Dark came out at 2.1 fold and the normalized % recombined (EGFP+) EGFP Reporter HEK293T cells, PA-Cre-C, Light (30 W/m2, 30 s) worked out at 12.1%.

For the substance “CreN(19-59)-nMag-NLS (from UniProt P06956 19-59)”, in the test with NLS-pMag-CreC, the fold increase in Cre-loxP recombination, PA-Cre-M, Light against Dark came out at 3.4 fold; the fold increase in recombined PA-Cre-M+ CAR Reporter Jurkat T cells, Light against Dark stood at 4.1 fold; the normalized % recombined (CAR-EGFP+) PA-Cre-M+ CAR Reporter Jurkat T cells, Dark was determined as 5.2%; the normalized % recombined (CAR-EGFP+) PA-Cre-M+ CAR Reporter Jurkat T cells, Light, Protocol E is 21.2%. Further, in the test with NLS-pMag-CreC, the normalized % recombined (EGFP+) EGFP Reporter HEK293T cells, PA-Cre-M, Light (30 W/m2, 30 s) was 90.8%; the normalized % recombined EGFP Reporter HEK293T cells, PA-Cre-M, Ambient light was 28.9%; the normalized % recombined EGFP Reporter HEK293T cells, PA-Cre-M, Ambient, Protocol B experiment was 45.2%; the normalized % recombined EGFP Reporter HEK293T cells, PA-Cre-M, Dark (pulsatile protocol experiment) worked out at 20.4%. Besides, in the test with NLS-pMag-CreC, the normalized % recombined EGFP Reporter HEK293T cells, PA-Cre-M, Dark (spontaneous background) came out at 26.7%; the normalized % recombined EGFP Reporter HEK293T cells, PA-Cre-M, Dark, Protocol B experiment is 32.9%; the normalized % recombined EGFP Reporter HEK293T cells, PA-Cre-M, Light, Protocol B was found to be 84.8%.
